Laboratory results taken from publication doi:10.1101/2023.02.07.527441.

Biological target: PmScsC-EcDsbA chimera (Proteus mirabilis | E. coli) (UniProt P0AEG4)
Assay: AUC

- stoichiometry N: 3
Substance: PmScsC-EcDsbA chimera (from UniProt P0AEG4 20-208) (enzyme)
